Results reported in the DeepSol protein solubility set.

Experiment: soluble on expression in E. coli; label from the status in PepcDB or PDB records

| Sequence | soluble on expression in E. coli |
| --- | --- |
| AHHHHHHGSKYDVVVVGSGVAGPIVARDVAKAGFSVLLVDKKPAIGTPKQCAEGINVNVFKEFDIPYDKRFINREIYGARIYSPSGYTAELRYDKVSGVILERKVFDKMLAYYAAKAGADVWARTEVIDLLRKEGKIMGVKAKHEGELVEIEAKIIVAADGVESTVARLAGINTYAPPHEFDSAYEYEMIIEGYDPDLIHLWFGNEIAPRGYVWVFPKDEDRANVGIGINSDNEKTAKYYLDKWLKENNIPTKKILEINVGLVPVGGFVRELVKENVAVVGDAARQVNPVHGGGMYEAMKAANILAKWIVKALEEENLELLKNYTKEWWEVEGPKMERLLKLRRAMEKLTDEDIDVFVQLLGGTDLEKLAGGNYFEVVKALMKHPKVLMSKRRLEILKALL | soluble |
| MFRVQTLNQIAEKGLQVFTEERYEVGDRINHPDGILLRSYSLHQEEFSKDLKAIARAGAGVNNIPVERCTEKGIVVFNTPGANANAVKELIIASLIMSSRNIINGVSWTKNLEGEEVPQLVESGKKQFVGSEIAGKRLGVIGLGAIGALVANDALALGMDVIGYDPYISVETAWRLSTHVQRAFSLDEIFATCDYITLHIPLTNQTKGIIGEHAVEKMKRGMRLFNFSRGELVDEKVLQKALEEDIITHYVTDFPNENVIKMKNVTATPHLGASTSESEENCAVMAARQLREYLETGNIRNSVNYPNVELPYIGKKRITIMHQNVPNMVGQITGCLAEHHINIADMTNRSKHSWAYTMIDIDNGIDDIIKENIVENISKITGVVAVRMIV | not soluble |
| MGSDKIHHHHHHMRVNSTDLQNAFGKYLSLLEKEDIIITKNGRSVAKLLRYNEPDYFLVHEESKNYKTTKRISYEEYMDLVDSSDQRYELIDGENYLLATPSFKHQVVVNEISGHFYNYFRGKSCRSLTSPFDVRLFGFATKFEEDPNVVQPDVVVICDLDKINEANKYEGIPSLIVEVLSPSTKGKDMVMKLNLYMKSGVLEYWVVDMESKSILQYSFSPERDIDSLKSLGEEDTIESSAFAGLKILLGEIFAEI | not soluble |
| MDKKQVTDLRSELLDSRFGAKSISTIAESKRFPLHEMRDDVAFQIINDELYLDGNARQNLATFCQTWDDENVHKLMDLSINKNWIDKEEYPQSAAIDLRCVNMVADLWHAPAPKNGQAVGTNTIGSSEACMLGGMAMKWRWRKRMEAAGKPTDKPNLVCGPVQICWHKFARYWDVELREIPMRPGQLFMDPKRMIEACDENTIGVVPTFGVTYTGNYEFPQPLHDALDKFQADTGIDIDMHIDAASGGFLAPFVAPDIVWDFRLPRVKSISASGHKFGLAPLGCGWVIWRDEEALPQELVFNVDYLGGQIGTFAINFSRPAGQVIAQYYEFLRLGREGYTKVQNASYQVAAYLADEIAKLGPYEFICTGRPDEGIPAVCFKLKDGEDPGYTLYDLSERLRLRGWQVPAFTLGGEATDIVVMRIMCRRGFEMDFAELLLEDYKASLKYLSDHPKLQGIAQQNSFKHT | soluble |
| DGFKIVQFSDAHLSDYFTLEDLKTVILTINESKPDLIVFTGDIIDNPDTYQHHQAVIPLLRKLNAPFGKLCIYGNHDHGGYGTAVYKSLMTAGGFTVYRNGYQTLSLADGSKIEIASLDDFNAGKPRFMQGTLSRLSDRLFSILLVHEPDAALKTTDYPVNLQLSGHTHGGQIQLPFYGPIITPPYGKVYTEGMYQTGSTHIYVNRG | not soluble |
| MSLGENVEFKEFLGNFHLKEGRFRQLACQMNHRIIMGKGVALYVVGVSDSGEIKGIDENKFSETIEVLKKLATEIEAEVSSVERHEVNGGYVGLVEIRKTKAKEHILVGTAGHVDHGKSTLVGCLITGKPDDGDGATRVYLDVLKHEIERGLSAEISFAVFGYKDGKVLRMKNPLSKAEKAMVVETADKLVSFVDTVGHEPWLRTTIRGLLGQKVDYGLLVVAANDGVMRTTKEHLGIMLAMDLPVIVAVTKADMVDDARLSEVLQEISATLRRVGRVPTVLKSRHDARKAAEMVKSNKLLVPVVITSAVTLEGYDILEEIFLHLPKRYTADEDFLMYIDKIYSVTGVGTVVSGSVKSGELAEGDEVYIGPFQDGSFRRVRIQSIEMHHYRIDRAKAGDIIGAAVKGVRYDELRRGMVISRKEPRAVWEFDAEIYVFTHPTLISVGYEPVMHVETISETVTFVEMDKEYLKPGDRGIVRMKFKYHPHFVYEGQKFIFREGRSKGMGEIIRVFEGHHHHHH | soluble |
| MRLRKKPWARPALEACSFFVINPTEYKGKWREVFGNSNEIWLELGCGKGGFISKLASTNPDKNFIAVDIKDEVLALAMKKIENEYALIGAETKNIRLMAHEIMLIHRMLDENDQIGRIFINFCNPWPKNRHKARRLTHPNQLNQYRTFLAPNGQIWFKTDDTMLFQDSIKYFEQCNFNIVYLTEDLHASGFEGNIETEHERMFLEQGCKIKFLIAEKK | soluble |
| GAEPVDEEAPLLMKNQKDFSSYLMGRQSIYKRHIIEDFVRKMLPGISEHKAASINNAVYSNFVREYKMLVKPEVSKKNYSRDVPFPDIELSLLPGAKEILEKSRNANSRVILISNRGHGDLENEINHLGMMHYFDVVSGAEEVTLEKSHLPPSQMPEDLQKRLINSLNGSDEEALRATLSEAAIYAHPDSTTIERIDKKPDSTRLAESLERLSVQPNVPITSYGDQPSDIKQLKSVAEPKSRVLKGVIVNAQRDDVGREIDVDGVPTRVVSKITEL | not soluble |
| PVSGTPSGITELDNVTTGGQPGELIIIAARPAMGKTTFAQLVAQSTLNKYPDASIQFYSQEMPADQLVQRFMSMRSRISLQSIRQATELTELAWSKIAEAMGYIMNNWKDRLLIDDEPSLPPYRLRTKVRRNTRLYGKPKAIIIDYIQLMRSTGKFENRNLELAEISSELKKLAKETGCPVYALSQLNRSLEQRANKRPVNSDL | not soluble |
| MNEKYEAVIGLEIHVQMDTKTKMFCGCKVEFGAEPNTNVCPVCLGMPGALPIVNKRAVEYAIRASLALNCEVHEESVFARKHYFYPDLPKGYQISQYEKPLATNGWVELNLPNGEKKKVRIRRLHIEEDAGKNIHEGDKTLVDLNRAGTPLMEIVTEPDIRTPEEARLFLEKLRNIMRYAGVSKADMEKGQLRCDINVSIRPKGSKEFGTRVEIKNVNSFRFVQKALEYEIERQINVVEEGGEVVQETRTFDPQTGKTYPMRTKEEAEDYRYFPDPDLVPLKVKKEWIEEIKKNMPELPDQRFERLIKEYGLSEYEAGILVNHKEVGDFFEEAVRHFKEPKGIVNWLINDLLGLLRDKGISIEESPVKPEHLAELVKLIKEKVISTKIGKEVIKEMVETGKTPSQIVEEKGLKQITDENQIKELVKKIFEKHPKEVERLKQGEEKLIGFFVGQVMRETRGKANPQVVNKVIRELVKEV | soluble |
| MPPKPKKSTGAKKKVSKLNKRPSKISVVSVNERSKNERSVMQSIEQEEATNNEIVPTPKKTTAQIAQQPTPTLPQIIAKQEPEVAMKTMMLPPPSDPPPPPPPVAPHQPPPQLATSAQPPQPPVINSQLPRMSPAPAIPPSMAQPLLQSPSPGADIAIRRPSKEKTDEKSVDETGGSDKKKRTEVICSWIRLVLQNGVAGLKKEYRDSPNEAPEDIATSFLGNPTRNRYRNIPCCDITRVKLTDDPHFYIHANLVSSGPNPRRFICTQAPLNGTIEEFWKMIIVTGIEYIVMLCELVEKGKPKSAEYFPSQIGQTTKIGRLCTVTKESRVDIDKTLVMSTMRISKPGDNAVVKIVKHIHWRNWPDHGVPDNFLSPFRLLTVVKNCTKPIVVHCSAGVGRTGTLALILIILESICLPDFIGVPRLLAKLREERFRAVQTEMQYLYAHRCVLEYLALKKYVQSREDFAKFAKDYEQALAMCPKEA | not soluble |
| MSRRNATSFVDNNTLTSSEGLTSGVFSWALERLPTCLREELQLPLTDTGSCWQTN | not soluble |
| GPGSMTPTRAQLAAFVDHTLLKPEATAADVAALVTEAAELGVYAVCVSPPMVPAAVQAGAGVRVASVAGFPSGKHVSAVKAHEAALAVASGAAEIDMVIDVGAALAGDLDGVRADIAAVRGAVGGAVLKVIVESSALLALADEHTLVRVCRAAEDAGADFVKTSTGFHPSGGASVRAVALMAEAVGGRLGVKASGGIRTAADALAMLDAGATRLGLSGTRAVLDGLG | soluble |
| MPAQPNPEQRDWLEALNAGDATMGESRLFERDGTWYLHVTATRDVEERSDVSAEERTPIGVDIGEASLATVCHRDGHGSPTAPELWADEGKTVRRLRKTYFTATRRLQTRGSERIVESFGDDIWDQIDDVFHRVTREVVEYAESVENPVLVLEDLTYIRESMDYGEYMNRRLHGWGFAKLHAQIRYKAVEKGIPVETVNPCNTSKECHACGEVGYRPRQATFKCTNDACWMGESQADVNGAINIADRYLSGESHSREHTDGDDSAGDGGRLTAPQDTLADATTQETLGTYAS | soluble |
| MGSDKIHHHHHHMTTTPLPTFSDDQAQAHDRIAEVLRDMGVDIDDDTLVPAKDTKSAVLAVTGKAGSGKTLLLAELVKALERTGVEIVSGDWEGKRRKDRRTVAVLAPTNKAASVLRNRGVPATTIHRILYTPMYDPEFEKVAEWLAGQGERPSIEALTDAAMDRAKEVYETTKSVPAALASAGLRGSDFITGWKRREDGLDIGLVDESSMLDDKQFQDLKEIFPTLVLFGDPAQLAPVGQSGEMIFDRFKGDNLLHLGRVHRQDADNPILDLAHALGDPQLEFRDFEQMIEDAAARDDRVVVSPRANSDMMARSPVLVWRNATRIRLIAAFRAAFGAGDDEILPGEPLICDGIELPLKHRKKRIDLEARGLIKGAPVVYLGPGNKPGFSRLHVMGAETPRFSAASIVKIEKPGEEEPFLPYAARMGAAFLHGAAVTMHKAQGSQWPEVQVFSPDLYAASRAGRMEAGQALWKRLAYVAITRAEERLFWVTRYMLSRPVHDLSTDDLTVKAAPLELEAEEDADTSTM | not soluble |
| MGSDKIHHHHHHMKGLYIGAAGMMNYMQHIQVHSNNVANAQTPGFKFDQLTSEVISRNKVNYQNGPVARQVGTIDYGVRPAATHINLTAGSSYITNRDRDFFMQDTDPTQGSNFFITAKNGEISLSRGGQFHSDQFGFLRTADGANLLSATGEAIQVGQKTSIRSEANGDLYNAETGQYLGRLGTKFVSANQADSLVKDGEGRLHVNGINTMNLPAGQGIIQNGVIETSNVDLGVEMVQLMDNQRMVQASKNVVNMFDKVYDKEATGLIRQ | not soluble |
| MLRRVNEQGPVQGRAQAPVKPDDSVPPELARARVWILTDGKAGDENQCIGIAEALGLAYETRRIPDGRPLTWMAPWGPIDPRDAPGRAGGLLQGPLPHLLIASGRRAVPYLRAVRRASDEKTFTAFLKDPRTGHDTADFIWVPDYDDLRGPNVFTTLTAPHPVSRARLDAARTTPDPRLARLPWPRIAVLIGGDSRHLRYRKADMQRLVRDLTKLAEGGCSLMLTVSRRTPPDLRKALEDLVKDKGGFFWDGSGENPYVGMLAIADHIVVTSDSANMVGEAASTGVPLLLFDLPRTYIRHRRMFAGLAMAGALKPFIGRLEALRYAPIDATPEIAAALAEGYQRHRARLAGEVAAVPRPAEPTSAPRGPFLEHHHHHH | not soluble |
| MGSDKIHHHHHHMFKPMASVFTNHQIAGHYRAIERAQKCVVPFHFEIQGQEYPKPKPERNWLRRLSGTSSEKYAMVELTPTKVVLWSPEGRNLGEMPLSAVRRIQIGAIRCHVTEGLDPRHAFRATIFVLTDSGNYYFANSDMEVLPAICKFAHEHQVPVEDPLRLIPLLKVGWRVAAVTLHETYAQLVAHTGYPADKV | not soluble |
| MRGSHHHHHHMSDEEHTFETADAGSSATYPMQCSALRKNGFVVIKSRPCKIVDMSTSKTGKHGHAKVHLVAIDIFTGKKLEDLSPSTHNMEVPVVKRNEYQLLDIDDGFLSLMNMDGDTKDDVKAPEGELGDSLQTAFDEGKDLMVTIISAMGEEAAISFKEAARTD | soluble |
| SLDEITAVVRTAARELVSADGATFVLRENGNCFYADEDAIAPLWKGLRFPLERCISGWVMLNRQAAVIEDIYQDQRIPVEAYRPTFVQSLAMVPIRGEDPIGAIGTYWARRH | not soluble |
